Experimental data taken from PMC1747184 (Nucleic Acids Research, 2006).

Biological target: MutSα (MSH2–MSH6) (human (endogenous in HCT-116), UniProt P43246;P52701)
Assay: pull-down

MutSα (MSH2–MSH6), sequence (P43246 whole entry, chain 1 of 2): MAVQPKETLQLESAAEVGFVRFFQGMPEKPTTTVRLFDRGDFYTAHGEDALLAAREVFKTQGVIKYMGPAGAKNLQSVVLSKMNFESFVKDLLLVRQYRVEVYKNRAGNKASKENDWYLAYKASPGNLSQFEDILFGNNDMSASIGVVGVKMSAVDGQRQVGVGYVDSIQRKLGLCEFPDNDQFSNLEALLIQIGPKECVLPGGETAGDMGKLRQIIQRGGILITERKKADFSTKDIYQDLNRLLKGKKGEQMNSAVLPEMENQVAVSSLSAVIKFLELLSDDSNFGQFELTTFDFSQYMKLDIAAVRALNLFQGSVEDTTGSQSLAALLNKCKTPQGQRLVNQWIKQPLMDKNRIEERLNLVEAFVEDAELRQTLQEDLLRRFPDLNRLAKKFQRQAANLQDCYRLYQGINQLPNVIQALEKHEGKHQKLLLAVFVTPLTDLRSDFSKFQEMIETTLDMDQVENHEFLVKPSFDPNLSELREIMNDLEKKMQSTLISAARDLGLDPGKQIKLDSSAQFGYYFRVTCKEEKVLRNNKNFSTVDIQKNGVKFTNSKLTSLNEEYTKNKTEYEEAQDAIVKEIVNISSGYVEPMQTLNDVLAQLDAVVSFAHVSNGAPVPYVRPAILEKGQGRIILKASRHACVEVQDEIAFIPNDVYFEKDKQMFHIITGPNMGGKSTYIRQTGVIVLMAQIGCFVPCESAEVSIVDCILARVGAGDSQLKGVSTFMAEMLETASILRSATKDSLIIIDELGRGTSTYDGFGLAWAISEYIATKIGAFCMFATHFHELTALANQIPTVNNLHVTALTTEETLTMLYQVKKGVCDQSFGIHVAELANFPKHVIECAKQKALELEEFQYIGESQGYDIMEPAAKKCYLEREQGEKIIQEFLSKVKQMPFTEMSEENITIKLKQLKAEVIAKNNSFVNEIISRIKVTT
MutSα (MSH2–MSH6), sequence (P52701 whole entry, chain 2 of 2): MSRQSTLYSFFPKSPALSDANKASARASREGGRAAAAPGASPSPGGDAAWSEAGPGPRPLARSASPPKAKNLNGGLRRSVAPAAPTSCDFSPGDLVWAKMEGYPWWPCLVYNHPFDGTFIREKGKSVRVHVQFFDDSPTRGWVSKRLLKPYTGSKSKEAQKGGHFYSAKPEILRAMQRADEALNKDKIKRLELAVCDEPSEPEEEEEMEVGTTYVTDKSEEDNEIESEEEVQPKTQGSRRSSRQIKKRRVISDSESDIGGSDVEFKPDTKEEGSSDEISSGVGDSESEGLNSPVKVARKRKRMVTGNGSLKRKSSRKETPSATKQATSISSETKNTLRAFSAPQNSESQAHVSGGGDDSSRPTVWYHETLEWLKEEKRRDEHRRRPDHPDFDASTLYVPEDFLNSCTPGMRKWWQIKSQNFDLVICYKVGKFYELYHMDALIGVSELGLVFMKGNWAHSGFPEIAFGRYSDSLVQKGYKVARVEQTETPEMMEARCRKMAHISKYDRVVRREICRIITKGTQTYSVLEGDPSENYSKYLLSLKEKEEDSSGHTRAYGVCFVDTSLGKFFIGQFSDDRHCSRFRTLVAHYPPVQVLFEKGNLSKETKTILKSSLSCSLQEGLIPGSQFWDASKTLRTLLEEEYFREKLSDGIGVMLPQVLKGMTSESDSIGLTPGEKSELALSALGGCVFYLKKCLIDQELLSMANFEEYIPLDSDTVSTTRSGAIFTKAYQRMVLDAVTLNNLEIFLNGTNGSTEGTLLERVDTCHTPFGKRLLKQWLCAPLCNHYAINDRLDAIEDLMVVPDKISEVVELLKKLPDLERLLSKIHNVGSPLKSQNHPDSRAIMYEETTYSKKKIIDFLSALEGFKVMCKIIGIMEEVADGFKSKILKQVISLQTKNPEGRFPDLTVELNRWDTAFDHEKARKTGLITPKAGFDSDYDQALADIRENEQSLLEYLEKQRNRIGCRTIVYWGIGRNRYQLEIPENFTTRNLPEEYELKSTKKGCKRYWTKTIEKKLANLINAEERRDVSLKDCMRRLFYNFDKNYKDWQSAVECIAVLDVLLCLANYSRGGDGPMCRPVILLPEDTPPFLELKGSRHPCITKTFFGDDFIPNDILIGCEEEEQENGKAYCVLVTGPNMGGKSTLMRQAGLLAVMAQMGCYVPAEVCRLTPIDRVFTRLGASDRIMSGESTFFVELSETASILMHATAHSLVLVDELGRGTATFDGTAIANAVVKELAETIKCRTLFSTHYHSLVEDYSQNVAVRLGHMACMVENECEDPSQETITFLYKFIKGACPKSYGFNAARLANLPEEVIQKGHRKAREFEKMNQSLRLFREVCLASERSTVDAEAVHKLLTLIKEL

B1: MutLα^(MLH1 A128P) (complex)
chain 1: MSFVAGVIRRLDETVVNRIAAGEVIQRPANAIKEMIENCLDAKSTSIQVIVKEGGLKLIQIQDNGTGIRKEDLDIVCERFTTSKLQSFEDLASISTYGFRGEALASISHVAHVTITTKTADGKCAYRPSYSDGKLKAPPKPCAGNQGTQITVEDLFYNIATRRKALKNPSEEYGKILEVVGRYSVHNAGISFSVKKQGETVADVRTLPNASTVDNIRSIFGNAVSRELIEIGCEDKTLAFKMNGYISNANYSVKKCIFLLFINHRLVESTSLRKAIETVYAAYLPKNTHPFLYLSLEISPQNVDVNVHPTKHEVHFLHEESILERVQQHIESKLLGSNSSRMYFTQTLLPGLAGPSGEMVKSTTSLTSSSTSGSSDKVYAHQMVRTDSREQKLDAFLQPLSKPLSSQPQAIVTEDKTDISSGRARQQDEEMLELPAPAEVAAKNQSLEGDTTKGTSEMSEKRGPTSSNPRKRHREDSDVEMVEDDSRKEMTAACTPRRRIINLTSVLSLQEEINEQGHEVLREMLHNHSFVGCVNPQWALAQHQTKLYLLNTTKLSEELFYQILIYDFANFGVLRLSEPAPLFDLAMLALDSPESGWTEEDGPKEGLAEYIVEFLKKKAEMLADYFSLEIDEEGNLIGLPLLIDNYVPPLEGLPIFILRLATEVNWDEEKECFESLSKECAMFYSIRKQYISEESTLSGQQSEVPGSIPNSWKWTVEHIVYKALRSHILPPKHFTEDGNILQLANLPDLYKVFERC
chain 2: MERAESSSTEPAKAIKPIDRKSVHQICSGQVVLSLSTAVKELVENSLDAGATNIDLKLKDYGVDLIEVSDNGCGVEEENFEGLTLKHHTSKIQEFADLTQVETFGFRGEALSSLCALSDVTISTCHASAKVGTRLMFDHNGKIIQKTPYPRPRGTTVSVQQLFSTLPVRHKEFQRNIKKEYAKMVQVLHAYCIISAGIRVSCTNQLGQGKRQPVVCTGGSPSIKENIGSVFGQKQLQSLIPFVQLPPSDSVCEEYGLSCSDALHNLFYISGFISQCTHGVGRSSTDRQFFFINRRPCDPAKVCRLVNEVYHMYNRHQYPFVVLNISVDSECVDINVTPDKRQILLQEEKLLLAVLKTSLIGMFDSDVNKLNVSQQPLLDVEGNLIKMHAADLEKPMVEKQDQSPSLRTGEEKKDVSISRLREAFSLRHTTENKPHSPKTPEPRRSPLGQKRGMLSSSTSGAISDKGVLRPQKEAVSSSHGPSDPTDRAEVEKDSGHGSTSVDSEGFSIPDTGSHCSSEYAASSPGDRGSQEHVDSQEKAPKTDDSFSDVDCHSNQEDTGCKFRVLPQPTNLATPNTKRFKKEEILSSSDICQKLVNTQDMSASQVDVAVKINKKVVPLDFSMSSLAKRIKQLHHEAQQSEGEQNYRKFRAKICPGENQAAEDELRKEISKTMFAEMEIIGQFNLGFIITKLNEDIFIVDQHATDEKYNFEMLQQHTVLQGQRLIAPQTLNLTAVNEAVLIENLEIFRKNGFDFVIDENAPVTERAKLISLPTSKNWTFGPQDVDELIFMLSDSPGVMCRPSRVKQMFASRACRKSVMIGTALNTSEMKKLITHMGEMDHPWNCPHGRPTMRHIANLGVISQN
  fold decrease of binding against wild-type MutLα: ~5 fold
